Results: patent US20260159566A1 (US Dept. of Health and Human Services, published 2026)
Like-named read-outs stand apart in the source and are kept apart here.

Experiments:
[1] = molecular target: T1, B-cell Maturation Antigen (BCMA) (human, UniProt Q02223 1-184); assay: cell-based or functional assay
T1 sequence: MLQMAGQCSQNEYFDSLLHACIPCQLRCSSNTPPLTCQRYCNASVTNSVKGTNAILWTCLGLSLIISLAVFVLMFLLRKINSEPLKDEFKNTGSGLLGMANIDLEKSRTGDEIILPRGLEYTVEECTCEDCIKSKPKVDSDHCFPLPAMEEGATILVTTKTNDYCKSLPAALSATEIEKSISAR

[2] = molecular target: T1, B-cell Maturation Antigen (BCMA); assay: cell-based or functional assay; remark: listed apart in the source
[3] = molecular target: T2, BCMA-Fc protein labeled with phycoerythrin (Homo sapiens (Human), UniProt Q02223 1-54, labeled with phycoerythrin); assay: flow cytometry, BCMA-Fc-PE staining of CAR-transduced T cells
T2 construct: Staining reagent; also called BCMA-Fc-PE reagent; BCMA-Fc protein reagent; not shown: Fc part
T2 sequence: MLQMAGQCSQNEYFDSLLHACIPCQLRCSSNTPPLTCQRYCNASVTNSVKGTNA
Description: (§1) With reference to Table 2, cultured T cells were transduced with the indicated CARs and cultured overnight with the indicated target cells (top row). After the overnight incubation, a standard ELISA assay was performed on the culture supernatant. BCMA-K562 is BCMA⁺. All other targets are BCMA-negative. The percentage of T cells expressing the indicated CAR was determined by staining with a BCMA-Fc-PE reagent followed by flow cytometry. The % CAR⁺ equals the percentage of CD3⁺ cells transduced with each CAR that stained with the BCMA-Fc-PE reagent minus the percentage of untransduced CD3⁺ lymphocytes that stained with the BCMA-Fc-PE reagent. Except for the % CAR⁺ column, all numbers are pg/mL of interferon-gamma.

[4] = molecular target: T2, BCMA-Fc protein labeled with …; assay: as above; remark: listed apart in the source
Description: as §1

Interferon-gamma ELISA, T cells cultured overnight with BCMA-K562 cells [1]: 31300 pg/mL
Interferon-gamma ELISA, T cells cultured overnight with RPMI-8226 cells [1]: 4060 pg/mL
% CAR+ (percentage of CD3+ cells stained with BCMA-Fc-PE minus untransduced) [3]: 60.5%
% CAR+ (percentage of CD3+ cells stained with BCMA-Fc-PE minus untransduced) [4]: 60.5%
B1: FHVH33-CD828Z (other)
chain: EVQLLESGGGLVQPGGSLRLSCAASGFTFSSYAMSWVRQAPGKGLEWVSSISGSGDYIYYADSVKGRFTISRDISKNTLYLQMNSLRAEDTAVYYCAKEGTGANSSLADYRGQGTLVTVSSFVPVFLPAKPTTTPAPRPPTPAPTIASQPLSLRPEACRPAAGGAVHTRGLDFACDIYIWAPLAGTCGVLLLSLVITLYCNHRNRSKRSRLLHSDYMNMTPRRPGPTRKHYQPYAPPRDFAAYRSRVKFSRSADAPAYQQGQNQLYNELNLGRREEYDVLDKRRGRDPEMGGKPRRKNPQEGLYNELQKDKMAEAYSEIGMKGERRRGKGHDGLYQGLSTATKDTYDALHMQALPPR
notes: Chimeric antigen receptor on transduced primary human T cells; also called FHVH33 CAR
Tumor-necrosis factor-alpha ELISA, T cells cultured overnight with BCMA-K562 cells [2]: 2160 pg/mL
Tumor-necrosis factor-alpha ELISA, T cells cultured overnight with RPMI-8226 cells [2]: 210 pg/mL
